Assay results taken from US20090004212A1, “Tumour vaccines for MUC1-positive carcinomas” (priority 1997, published 2009).
No end group written: not given here. *: point of attachment. αGalNAc = CC(=O)N[C@@H]1[C@@H](O)[C@@H](O)[C@@H](CO)O[C@@H]1*

What was measured:
[1] = biological target: T1, human 20S immunoproteasomes (Homo sapiens, UniProt P28062+P28065+P40306); assay: In vitro proteolysis of MUC1 repeat peptides and glycopeptides by immunoproteasomes; format: biochemical
T1 construct: purchased Immatics Biotechnologies (Tübingen, Germany)
Experimental: A 1 mg/ml solution of immunoproteasomes prepared according to a published protocol (20) was purchased from Immatics Biotechnologies (Tübingen, Germany) and stored frozen at −80° C.
(§1) Glycopeptides were incubated with 10 μg of human 20S immunoproteasomes (Immatics) for […], at 37° C., in 10 μl of digestion buffer (20 mM HEPES/KOH, pH 7.6 containing 2 mM Mg(CH3COO)2 and 1 mM DTT) as described (13). Digestion was stopped after 24 h by freezing the sample at −80° C. Human cathepsin-L was purchased from Sigma (Munich, Germany) and solubilized in 0.1 M sodium acetate, pH 5.5, containing 1 mM EDTA and 1 mM dithiothreitol (12). About 5 mU of enzyme were added to sialoglycopeptide substrates SGGP1 to SGGP5 (75-100 μM) in a total volume of 20 μl. The reaction mixtures were incubated at 37° C. for 24 h and 1 μl of trifluoroacetic acid was added to stop the reaction. The reaction products were cleaned by solid-phase extraction on ZipTipC18 pipette tips and 0.5 μl aliquots were applied onto the MALDI target for mass spectrometric analysis. Kinetic studies with the non-glycosylated 100-mer P1 were performed under the same conditions and the products were chromatographed on HPLC for purification and quantification.

Human cathepsin-L = biological target: T2, Human cathepsin-L (Homo sapiens, UniProt P07711); assay: In vitro proteolysis by cathepsin-L; format: biochemical; settings: 37° C., 24 h
T2 construct: purchased Sigma (Munich, Germany)
Experimental: as §1

HLA-A0201 = biological target: T3, HLA-A0201 (Homo sapiens, UniProt P04439, D140Y/D185E/D98H/E176V/E277Q/G131W/G231S/I119V/I121R/I166T/I218V/L300P/L318F/N151K/N90K/P208A/P217A/Q86G/Q94H/R138H/R169H/T345S); assay: MHC stabilization assay on T2 cells; format: binding; settings: T2 cells, 100 μg peptide, 16 h, W6/32 antibody, FACS
T3 construct: endogenous in cells; host or cells: T2 cell line (TAP-deficient)
Experimental: MHC stabilization assay is based on the increased affinity of HLA-A, -B, -C specific monoclonal W6/32 antibody for the stabilized conformation of MHC molecules after binding of a peptide ligand. The T2 cells express empty MHC molecules with short half-life.
For MHC stabilization assay T2 cells were grown in IMDM medium supplemented with 2% FCS. T2 cells were washed in PBS from the residual serum, and resuspended at 1×10^6/ml of IMDM supplemented with 0.1% FCS and 25 mM HEPES. Half of a million of cells were incubated in 48-well cell culture plate with 1 μg of […]2-microglobulin and 100 μg of peptide for 16 h at 27° C. and 8% CO2. Cells were washed with 5 ml PBS, centrifuged at 180×g for 5 min and the pellet was resuspended in 10 μl PBS containing 1 μg of W6/32 antibody and incubated at 4° C. for 30 minutes.
Subsequently, cells were washed in PBS with 1% BSA (3×5 ml) and the pellet was resuspended in 50 μl of secondary anti-mouse Alexa 488 antibody (1:1000 in PBS with 0.1% BSA), incubated for 30 minutes in the dark, washed with PBS (3×5 ml) and resuspended in 500 μl of PBS. Binding of the W6/32 antibody to MHC class I molecules was analyzed by FACS on the Beckman Coulter ADCXL4C flow cytometer. As a positive control hepatitis B virus core antigen HBVc18-27 P6Y˜C ([…]) was used. As a negative control T2 cells were used, to which no peptide was added.
Relative binding capacities of the peptides were expressed as the percent of the positive control signal (100%), normalized to the negative control (0%). A mean fluorescence that was at least 10% higher than the negative control level was considered positive binding.

CD8+ T-cells = assay: IFN-gamma and TNF-alpha production by peptide-primed T-cells; format: cell-based, human; settings: after last cycle of restimulation, 4 weeks of in vitro culture
Experimental: (§2) Peripheral blood mononuclear cells (PBMCs) were isolated from buffy coats of HLA-A*0201 healthy donors by Ficoll-Hypaque (MP Biomedicals, Solon, Ohio) density gradient centrifugation.
(§3) Dendritic cells (DCs) were generated by culturing adherent monocytes for 6 days in AIM-V medium (Invitrogen, Carlsbad, Calif.) supplemented with 500 U/mL granulocyte macrophage colonystimulating factor (GM-CSF, R&D, Minneapolis, Minn.) and 1000 U/mL interleukin (IL)-4 (R&D), and then matured for 48 hours with a cocktail of cytokines consisting of 10 ng/mL of each, tumor necrosis factor (TNF)-alpha, IL-6, IL-1beta (R&D), and 1 μg/mL prostaglandine E2 (Sigma, St. Louis, Mo.). […] DCs pulsed with single peptides were combined, washed, resuspended and used as stimulator cells. They were added to the autologous lymphocyte fraction in 24-well Linbro plates (ICN, Aurora, Ohio) at a ratio of 1:10 at culture initiation and fed in RPMI 1640 media supplemented with 10% human AB serum, 10 ng/ml rhIL-6 (R&D) and 5 ng/ml rhIL-12 (PreproTech, Rocky Hill, N.J.). On day 10 and thereafter every 9 days, T cells were restimulated at a ratio of 1 DC to 20 T cells, in RPMI 1640 media supplemented with 10% human AB serum, rhIL-2 and rhIL-7 (20 U/ml each, R&D).
(§4) Antigen Specificity was Assessed after 4 Stimulations. Three Days Past Each stimulation cell supernatant was collected and IFNy secretion was quantified using OptElA human IFNy ELISA kit (BD). CD8+ T-cells were enriched using magnetic microbeads (human CD8+ T Cell Isolation Kit II from Miltenyi Biotech, Auburn, Calif.) according to the manufacture's instructions and analyzed by flow cytometry for intracellular IFN-gamma and TNF-alpha production after a final 5-hour restimulation with peptide-loaded DCs in the presence of monensin (Golgi Stop, BD; 21). CTL activity was determined 3 days after the last restimulation. […] They were washed, labeled with 5- (and 6)-carboxyfluorescein diacetate succinimidyl ester (CFSE) according to the manufacture's instructions (Immunochemistry, Bloomington, Minn.) and added to a 96-well plate in duplicates at 5000 cells/well. CFSE labeled T2 cells not loaded with peptides were used as controls. CD8+ T effector cells were added at various E:T ratios for a 6-hour incubation at 37° C. Target cell death was detected by adding 7-amino-actinomycin (7-AAD, Immunochemistry) to each well 10 min before data analysis by flow cytometry and analysis was performed according to the manufacture's instructions (22).

T2 target cells = assay: CTL activity against peptide-loaded T2 target cells (CFSE/7-AAD); format: cell-based, human; settings: T2 cells loaded with 10 μg/ml peptide, 6-hour incubation
Experimental: as §2, §3, §4

[2] = biological target: T4, HLA-A*0201 allele of the MHC class I molecule, empty, on the surface of TAP-deficient T2 cells (human); assay: MHC stabilization assay on T2 cells, W6/32 staining, flow cytometry
T4 construct: also called HLA-A2

Molecule | ligation strength (binding to HLA-A0201) (HLA-A0201) | CD8+ cells producing IFN-γ (CD8+ T-cells) [%] | TNF-α production by CD8+ cells (CD8+ T-cells) | lysis of peptide-pulsed T2 target cells by induced CD8+ T cells (T2 target cells) | binding result [2] | further results
(CVISAPDTRPAPGSTAPPAH)x5 [Peptide P1] | – | – | – | – | – | AVERAGE FRAGMENT LENGTH ([1]; digest by immunoproteasomes): 25.2; NUMBER OF FRAGMENTS ([1]; digest by immunoproteasomes, HPLC and MALDI-MS): 105; % of glycopeptide ([1]; glycosylated 8- to 11-meric fragments relative to total 8- to 11-mers): 0%; 8-11 mers (%) ([1]; relative to total amount of digestion products of immunoproteasomal cleavage): 13%; digestion of the substrate by cathepsin L (Human cathepsin-L): quantitative digestion of the substrate within 24 h
SAPDT(-GalNAc)RPAPG (SAPDTRPAPG) [Peptide F2] | strong binding | 22 | not TNF-α | efficiently lysed | – | ligation strength (binding to HLA-A0201) (HLA-A0201; listed as SAP10-T5*): binding comparably strong in the glycosylated and non-glycosylated form; ligation strength (binding to HLA-A0201) (HLA-A0201; listed as SAP10-T5-GalNAc): slightly weaker binding; lysis of peptide-pulsed T2 target cells by induced CD8+ T cells (T2 target cells; listed as SAP10-T5*): efficiently kill
SAPDTRPAPG (fragment of MUC1; listed as Homo sapiens) [Peptide F1] | strongest binders | 28.8 | not TNF-α | efficiently lysed | – | lysis of peptide-pulsed T2 target cells by induced CD8+ T cells (T2 target cells; listed as SAP10): efficiently kill
SAPDTRPAPG (also called F1) [SAP10, non-glycosylated MUC1 tandem repeat peptide SAPDTRPAPG] | – | – | – | – | binds | –
SAPDT(αGalNAc)RPAPG (Glycopeptide; also called SAP10-T5-GalNAc; F2) [SAPDT(-GalNAc)RPAPG (SAP10-T5*)] | – | – | – | – | binds | –
